According to patent US20250090700A1 (published 2025):

Biological target: synthetic sugar epitope
Assay: Biacore (SPR)

Kd [nM]	Binder
3.9	IgG1 (antibody, V domains shown) VH: QVQLVQSGAEVKKPGASVKVSCKASGFSFTTYWITWVRQAPGQGLEWIGMIHPSDAETRLSQTFKDKATLTADKSTSTAYMELSSLRSEDTAVYYCARDFDVWGQGTLVTVSS VL: DVVMTQSPLSLPVTLGQPASISCRSSQNIVHQNGQTYLGWYLQKPGQSPQLLIFRVSNRFSGVPDRFSGSGSGTDFTLKISRVEAEDVGVYYCFQGSHIPRTFGQGTRLEIK
3.1	IgG4PE (antibody, V domains shown) VH: QVQLVQSGAEVKKPGASVKVSCKASGFSFTTYWITWVRQAPGQGLEWIGMIHPSDAETRLSQTFKDKATLTADKSTSTAYMELSSLRSEDTAVYYCARDFDVWGQGTLVTVSS VL: DVVMTQSPLSLPVTLGQPASISCRSSQNIVHQNGQTYLGWYLQKPGQSPQLLIFRVSNRFSGVPDRFSGSGSGTDFTLKISRVEAEDVGVYYCFQGSHIPRTFGQGTRLEIK
